A word on the Kd: it is the concentration at which binding is half-saturated. A low value points to a tighter complex.

Positions count from the first letter of the chain named.

The labels stand for the following.
T1: EsCas13d, nuclease-dead (Eubacterium siraeum, UniProt B0MS50, R295A;H300A;R849A;H854A)
T1 sequence: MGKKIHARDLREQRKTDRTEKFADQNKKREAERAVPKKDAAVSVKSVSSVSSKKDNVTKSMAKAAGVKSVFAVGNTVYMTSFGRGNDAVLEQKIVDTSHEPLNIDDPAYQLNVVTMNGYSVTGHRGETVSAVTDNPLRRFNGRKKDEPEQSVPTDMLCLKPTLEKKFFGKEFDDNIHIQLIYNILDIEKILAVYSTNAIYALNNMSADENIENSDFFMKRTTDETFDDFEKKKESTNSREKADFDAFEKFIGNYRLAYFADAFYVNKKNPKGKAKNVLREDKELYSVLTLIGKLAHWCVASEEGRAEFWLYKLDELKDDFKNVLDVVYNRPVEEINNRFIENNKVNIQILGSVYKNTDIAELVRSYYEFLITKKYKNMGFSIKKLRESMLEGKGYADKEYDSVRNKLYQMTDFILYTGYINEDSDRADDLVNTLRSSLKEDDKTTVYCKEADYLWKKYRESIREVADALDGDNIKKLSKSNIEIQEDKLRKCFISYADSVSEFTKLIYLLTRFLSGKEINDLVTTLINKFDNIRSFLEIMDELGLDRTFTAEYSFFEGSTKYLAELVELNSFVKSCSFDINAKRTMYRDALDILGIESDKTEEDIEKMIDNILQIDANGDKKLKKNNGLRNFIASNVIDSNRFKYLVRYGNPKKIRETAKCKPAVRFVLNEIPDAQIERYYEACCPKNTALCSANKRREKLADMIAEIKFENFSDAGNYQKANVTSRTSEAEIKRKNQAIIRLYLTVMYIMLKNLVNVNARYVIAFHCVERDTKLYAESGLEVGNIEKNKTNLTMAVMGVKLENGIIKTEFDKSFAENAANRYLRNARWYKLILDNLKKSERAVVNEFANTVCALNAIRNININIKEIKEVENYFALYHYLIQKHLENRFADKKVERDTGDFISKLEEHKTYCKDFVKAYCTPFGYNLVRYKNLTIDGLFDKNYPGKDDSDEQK

B1: target 1 insA 3' of 12,insU 3' of 4 (mixed)
RNA 1: CACCCGUGCAAAAAUGCAGGGGUCUAAAACUGAGCGGAUAACCUCUCUAUGG
RNA 2: GGGAAUGGAUCCACAUCUACGAAUUCGUACCAUAGAGAGGAUUAUCCGCUUCACCGAGAUCGGAAGAGCACACGU
B2: target 1 insU 3' of 17,insG 3' of 1 (mixed)
RNA 1: B1 RNA 1
RNA 2: B1 RNA 2 with A36U, G37A, A38G, G39A, A41G, U51C, C52A, A53G
B3: target 1 insC 3' of 14,insC 3' of 3 (mixed)
RNA 1: B1 RNA 1
RNA 2: B1 RNA 2 with G39C, A41G, U51C
B4: target 1 insU 3' of 21,insA 3' of 11 (mixed)
RNA 1: B1 RNA 1
RNA 2: GGGAAUGGAUCCACAUCUACGAAUUCGUACCUAUAGAGAGGUAUAUCCGCUCACCGAGAUCGGAAGAGCACACGU
B5: target 2 MT 5'PFS GCG 3'PFS UUA (mixed)
RNA 1: CACCCGUGCAAAAUUGCAGGGGUCUAAAACCUUCUCCAAAUUGUUUCAUCCU
RNA 2: GGGAAUGGAUCCACAUCUACGAAUUCGCGAGGAUGAAACAAUUUGGAGAAGUUAAGAUCGGAAGAGCACACGU
B6: target 2 MT 5'PFS UUC 3'PFS UUC (mixed)
RNA 1: B5 RNA 1
RNA 2: B5 RNA 2 with G27U, C28U, G29C, A54C
B7: target 2 MT 5'PFS ACG 3'PFS UUC (mixed)
RNA 1: B5 RNA 1
RNA 2: B5 RNA 2 with G27A, A54C
B8: target 2 MT 5'PFS CGG 3'PFS CCC (mixed)
RNA 1: B5 RNA 1
RNA 2: B5 RNA 2 with G27C, C28G, U52C, U53C, A54C
B9: target 2 MT 5'PFS UCU 3'PFS CCG (mixed)
RNA 1: B5 RNA 1
RNA 2: B5 RNA 2 with G27U, G29U, U52C, U53C, A54G
B10: target 2 MT 5'PFS CGG 3'PFS CCG (mixed)
RNA 1: B5 RNA 1
RNA 2: B5 RNA 2 with G27C, C28G, U52C, U53C, A54G
B11: target 2 MT 5'PFS AUU 3'PFS UUU (mixed)
RNA 1: B5 RNA 1
RNA 2: B5 RNA 2 with G27A, C28U, G29U, A54U
B12: target 2 MT 5'PFS CAC 3'PFS UAC (mixed)
RNA 1: B5 RNA 1
RNA 2: B5 RNA 2 with G27C, C28A, G29C, U53A, A54C
B13: target 2 MT 5'PFS ACU 3'PFS UGU (mixed)
RNA 1: B5 RNA 1
RNA 2: B5 RNA 2 with G27A, G29U, U53G, A54U
B14: target 2 MT 5'PFS AGG 3'PFS ACU (mixed)
RNA 1: B5 RNA 1
RNA 2: B5 RNA 2 with G27A, C28G, U52A, U53C, A54U
B15: target 2 MT 5'PFS UCG 3'PFS UAG (mixed)
RNA 1: B5 RNA 1
RNA 2: B5 RNA 2 with G27U, U53A, A54G
B16: target 2 MT 5'PFS AGC 3'PFS AUC (mixed)
RNA 1: B5 RNA 1
RNA 2: B5 RNA 2 with G27A, C28G, G29C, U52A, A54C
B17: target 2 MT 5'PFS AGG 3'PFS ACC (mixed)
RNA 1: B5 RNA 1
RNA 2: B5 RNA 2 with G27A, C28G, U52A, U53C, A54C
B18: target 2 MT 5'PFS CAC 3'PFS UAA (mixed)
RNA 1: B5 RNA 1
RNA 2: B5 RNA 2 with G27C, C28A, G29C, U53A
B19: target 2 MT 5'PFS UCG 3'PFS UAU (mixed)
RNA 1: B5 RNA 1
RNA 2: B5 RNA 2 with G27U, U53A, A54U
B20: target 2 MT 5'PFS UCG 3'PFS UAA (mixed)
RNA 1: B5 RNA 1
RNA 2: B5 RNA 2 with G27U, U53A
B21: target 2 MT 5'PFS AGC 3'PFS AUG (mixed)
RNA 1: B5 RNA 1
RNA 2: B5 RNA 2 with G27A, C28G, G29C, U52A, A54G
B22: target 2 MT 5'PFS AGG 3'PFS UCU (mixed)
RNA 1: B5 RNA 1
RNA 2: B5 RNA 2 with G27A, C28G, U53C, A54U
B23: target 2 MT 5'PFS ACG 3'PFS AGC (mixed)
RNA 1: B5 RNA 1
RNA 2: B5 RNA 2 with G27A, U52A, U53G, A54C
B24: target 2 MT 5'PFS AGC 3'PFS AUU (mixed)
RNA 1: B5 RNA 1
RNA 2: B5 RNA 2 with G27A, C28G, G29C, U52A, A54U
B25: target 2 MT 5'PFS GUU 3'PFS AUC (mixed)
RNA 1: B5 RNA 1
RNA 2: B5 RNA 2 with C28U, G29U, U52A, A54C
B26: target 2 MT 5'PFS AGC 3'PFS AUA (mixed)
RNA 1: B5 RNA 1
RNA 2: B5 RNA 2 with G27A, C28G, G29C, U52A
B27: target 2 MT 5'PFS ACG 3'PFS AGA (mixed)
RNA 1: B5 RNA 1
RNA 2: B5 RNA 2 with G27A, U52A, U53G
B28: target 2 MT 5'PFS CAU 3'PFS CGC (mixed)
RNA 1: B5 RNA 1
RNA 2: B5 RNA 2 with G27C, C28A, G29U, U52C, U53G, A54C
B29: target 2 MT 5'PFS CAA 3'PFS CCG (mixed)
RNA 1: B5 RNA 1
RNA 2: B5 RNA 2 with G27C, C28A, G29A, U52C, U53C, A54G
B30: target 2 MT 5'PFS GUU 3'PFS AUA (mixed)
RNA 1: B5 RNA 1
RNA 2: B5 RNA 2 with C28U, G29U, U52A
B31: target 2 MT 5'PFS GUU 3'PFS AUG (mixed)
RNA 1: B5 RNA 1
RNA 2: B5 RNA 2 with C28U, G29U, U52A, A54G
B32: target 2 MT 5'PFS CAA 3'PFS CCA (mixed)
RNA 1: B5 RNA 1
RNA 2: B5 RNA 2 with G27C, C28A, G29A, U52C, U53C
B33: target 2 MT 5'PFS CGC 3'PFS CUU (mixed)
RNA 1: B5 RNA 1
RNA 2: B5 RNA 2 with G27C, C28G, G29C, U52C, A54U
B34: target 2 MT 5'PFS GUU 3'PFS AUU (mixed)
RNA 1: B5 RNA 1
RNA 2: B5 RNA 2 with C28U, G29U, U52A, A54U
B35: target 2 MT 5'PFS CGG 3'PFS CCA (mixed)
RNA 1: B5 RNA 1
RNA 2: B5 RNA 2 with G27C, C28G, U52C, U53C

The target of the series is T1, EsCas13d, nuclease-dead. As to the kind of experiment: crRNA (strand 1, pre-loaded); Mg2+; 40 mM Tris-HCl pH 7.5, 150 mM NaCl, 6 mM MgCl2, 1 mM DTT, 0.1% Tween-20, 0.2 mg/ml BSA; 25 C; 10 min per concentration, then washed. Conditions: tags: His6-TwinStrep-SUMO cleaved; N-terminal SNAP kept (SNAP-Surface 488); label: 3' end held by stalled T7 RNA polymerase.
With B1, the dissociation constant Kd was 26.3 ± 1.7 nM.

Regarding B2, binding was characterised by a dissociation constant (Kd) of 17.7 ± 2.1 nM. B3 registered a dissociation constant Kd of 45 ± 7 nM. B4: the affinity, expressed as Kd, was 49 ± 5 nM. Molecule B5 gave a Kd of 21 ± 4 nM. The same measure for B6: 31 ± 8 nM; for B7: 16 ± 6 nM.

Molecule B8 showed a Kd of roughly 19 nM. Molecule B9 showed a Kd of 17.4 ± 3 nM.

For B10, the dissociation constant (Kd) stood at 4.7 ± 0.4 nM.

As to B11, the equilibrium dissociation constant (Kd) came to 32 ± 7 nM. Take B12: binding was put at a Kd of 1.66 ± 0.25 nM. Compared with the last molecule, the Kd is about 19-fold lower. B13: binding was characterised by a dissociation constant (Kd) of 8.1 ± 1 nM. B14 registered a Kd of 8.1 ± 1.8 nM. B15 had a Kd of 27 ± 7 nM.

With B16, the Kd worked out at 10.9 ± 2.8 nM. This Kd lies about 2.5-fold lower than the previous one. In turn, B17 returned a Kd of 15 ± 6 nM. Consider B18, for which the dissociation constant Kd was 2.3 ± 0.4 nM.

For the molecule B19, the Kd is 34 ± 14 nM.

The molecule B20 returned a Kd of 15 ± 4 nM. In turn, B21 yielded a dissociation constant (Kd) of 12.6 ± 2.9 nM. The molecule B22 returned a Kd of 13.8 ± 2.1 nM. B23 returned a Kd of 6.4 ± 1.1 nM. Compared with the last molecule, the Kd is about 2.2-fold lower. The same measure for B24: 6.8 ± 1.2 nM.

For B25, the dissociation constant (Kd) amounted to 15 ± 1.2 nM. Regarding B26, the affinity, expressed as Kd, was 7.1 ± 1.3 nM. This Kd is about 2.1-fold lower than that of the molecule before. The molecule B27 registered a Kd of 7.8 ± 2.4 nM.

The molecule B28 yielded a dissociation constant (Kd) of 3.4 ± 0.6 nM. On to B29, for which the Kd was determined as 7.3 ± 2.9 nM. Compared with the last molecule, the Kd is about 2.1-fold higher. Take B30: binding was characterised by a dissociation constant (Kd) of 13.3 ± 1.9 nM. The molecule B31 had a Kd of 19.6 ± 2.4 nM. On to B32, for which binding was characterised by a dissociation constant (Kd) of 10 ± 5 nM. For B33, the Kd worked out at 14 ± 4 nM. For the molecule B34, the dissociation constant Kd came to 11.6 ± 1.4 nM. Turning to B35, the Kd turned out to be 37 ± 18 nM.

These data come from paper PMC10786891, “Massively parallel profiling of RNA-targeting CRISPR-Cas13d”.
